One data set concerns Syk. Nature of the data set: Co-transfection of Lyp1 or Lyp-N and kinase cDNA, kinase immunoprecipitation, anti-phosphotyrosine Western blot. The settings on record: co-transfection with Syk. The data set is classed as cell-based. On the procedure:
(§1) Western blotting was performed with anti-phosphotyrosine antibodies and chemiluminescent detection reagents. […] Syk was unaffected by Lyp1 (C).
(§2) Western blotting was performed with anti-phosphotyrosine antibodies and chemiluminescent detection reagents. Lyp1 reduced the tyrosine phosphorylation of Jak3 (C) while having little effect on Syk (D). No effect was seen when Syk was co-transfected with Lyp-N (D).
cDNA for the phosphatase Lyp1 and the indicated kinase, in the eucaryotic expression vector pcDNA3, were transiently transfected into either the COS-7 monkey epithelial cell line (A) or the 293T human epithelial cell line as indicated. 48 hours after transfection, cells were harvested, lysates made in 1 & NP-40 lysis buffer and immunoprecipitations performed with antibodies to the transfected kinase. Immunoprecipitates were washed, boiled in SDS sample buffer and electrophoresed on SDS-PAGE. After electro-transfer to nitrocellulose membrane, Western blotting was performed with anti-phosphotyrosine antibodies and chemiluminescent detection reagents. […] Lyp1 could also down-regulate Zap-70 after its activation by Fyn in 293-T cells (B, lanes 3 and 4). The closely related Zap family kinase Syk was also unaffected by Lyp1 (C). […]
Background: Immunoblotting shows a protein as a band on a membrane.

The test system of another data set is Cbl. Nature of the data set: Lyp1 transfection into COS-7 cells, Cbl immunoprecipitation, anti-phosphotyrosine blot. The data set is classed as cell-based, monkey. The settings on record: Lyp1 transfected COS-7 cells, endogenous Cbl. On the procedure: (A) Lyp immunoprecipitates from thymocytes (80×10^6 cells) stimulated with anti-CD3 were blotted with antiphsophotyrosine. A single phosphorylated band of 116 kD was detected co-immunoprecipitating with Lyp. Lyp protein loading was quantitated by anti-Lyp western blot after stripping. […] (C) Lyp1 was transfected into COS-7 cells and Cbl immunoprecipitates prepared from these and untransfected cells. Western blotting was performed with Lyp antibodies. The position of Lyp is indicted by an arrow. Cbl immunoprecipitates were also prepared and blotted with anti-phosphotyrosine (D), and then anti-Cbl after stripping.
One of the earliest events following TCR stimulation of T cells is the induction of tyrosine phosphorylation. In order to determine whether Lyp played a role in TCR signalling, human thymocytes were stimulated with anti-CD3 for various periods of time, Lyp immunoprecipitated and blotted with anti-phosphotyrosine. […] Once activated, the phosphorylation level of this protein remained constant over a period of 20 minutes. The 116 kD phosphorylated protein was identified by western blotting of Lyp immunoprecipitates from CD3 stimulated thymocytes with antibodies to various candidate proteins. […]

The next data set concerns the target T1, Lyp1 (Homo sapiens, UniProt Q9Y2R2).
T1 construct: made in house; host or cells: COS cells (transient transfection, pcDNA3); anti-T7 immunoprecipitate
T1 sequence (Q9Y2R2 1-807): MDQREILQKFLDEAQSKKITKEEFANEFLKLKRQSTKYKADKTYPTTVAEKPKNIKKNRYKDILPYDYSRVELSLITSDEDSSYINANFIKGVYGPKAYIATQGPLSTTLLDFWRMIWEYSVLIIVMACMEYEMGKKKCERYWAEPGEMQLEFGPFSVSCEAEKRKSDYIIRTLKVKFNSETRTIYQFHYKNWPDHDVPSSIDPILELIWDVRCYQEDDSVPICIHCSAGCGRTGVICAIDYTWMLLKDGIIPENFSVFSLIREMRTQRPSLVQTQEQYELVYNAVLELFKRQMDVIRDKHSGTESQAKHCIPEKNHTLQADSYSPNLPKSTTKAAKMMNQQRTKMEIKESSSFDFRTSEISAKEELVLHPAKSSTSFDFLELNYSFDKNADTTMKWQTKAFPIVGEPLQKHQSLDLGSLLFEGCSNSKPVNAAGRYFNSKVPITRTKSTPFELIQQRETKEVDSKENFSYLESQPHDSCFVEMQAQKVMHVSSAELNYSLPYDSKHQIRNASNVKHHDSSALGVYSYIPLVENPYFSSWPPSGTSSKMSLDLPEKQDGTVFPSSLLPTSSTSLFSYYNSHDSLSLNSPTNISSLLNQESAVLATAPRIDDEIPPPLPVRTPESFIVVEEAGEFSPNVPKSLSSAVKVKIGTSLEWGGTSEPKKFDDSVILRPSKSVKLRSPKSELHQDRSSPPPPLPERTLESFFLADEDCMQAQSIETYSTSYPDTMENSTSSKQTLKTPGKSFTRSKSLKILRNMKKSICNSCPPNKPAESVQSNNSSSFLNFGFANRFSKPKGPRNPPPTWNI
Nature of the data set: In vitro phosphatase assay with 33P labelled Raytide peptide and Lyp immunoprecipitates. Format: biochemical. The following applies: Lyp immunoprecipitates from transfected COS cells compared to control immunoprecipitates from untransfected cells. On the procedure: Anti-Lyp immunoprecipitates from untransfected and pcDNA3-Lyp1 transfected cells were prepared in pervanadate free lysis buffer and incubated with ^33P labelled substrate Raytide. At the indicated time points reactions were stopped by the addition of charcoal and the free ^33P released from the peptide and now present in the supernatant measured by liquid scintillation counting.
Raytide peptide was ^33P labelled on tyrosine residues in vitro using the tyrosine kinase p60src and purified on phosphocellulose paper. Release of ^33P over time was measured in the phosphatase assay and compared to controls from untransfected cells.
Specifically, the synthetic peptide Raytide was phosphorylated according to the method described by Guan et al., (1994)(54), on tyrosine by p60src (Oncogene Science) as follows: 10 μg Raytide in 50 mM Hepes pH 7.5, 10 mM MgCl2, 0.067% mercaptoethanol, 0.05 mM ATP was incubated with 300 μCiγ^33P ATP per ml and 2 μg p60src in a final volume of 30 μl. The reaction was allowed to proceed for 30 minutes at 30° C. and was stopped by the addition of […] 10% phosphoric acid.
The sample was spotted onto two 1×1 cm sheets of P81 phophocellulose paper and extensively washed with 0.5% phosphoric acid. […]
The phosphorylated substrate was used in the phosphatase assay as described by Stueli et al (1989)(54). […] After centrifugation the free ^33P in the supernatant was measured.

The subject of a further data set is Lyn kinase. Nature of the data set: Effect of Lyp1 on Lyn kinase activity. Format: cell-based.
For a further data set, the system named is Jak3. Nature of the data set: Co-transfection of Lyp1 and kinase cDNA in COS-7, kinase immunoprecipitation, anti-phosphotyrosine Western blot. The following applies: COS-7 cells. Format: cell-based. On the procedure: as §2
cDNA for the phosphatase Lyp1 and the indicated kinase, in the eucaryotic expression vector pcDNA3, were transiently transfected into the COS-7 monkey epithelial cell line. 48 hours after transfection, cells were harvested, lysates made in 1% NP-40 lysis buffer and immunoprecipitations performed with antibodies to the transfected kinase. Immunoprecipitates were washed, boiled in SDS sample buffer and electrophoesed on SDS-PAGE. After electro-transfer to nitrocellulose membrane, Western blotting was performed with anti-phosphotyrosine antibodies and chemiluminescent detection reagents.

In the next data set the test system is Ick. Description: Co-transfection of Lyp1 and src family kinases. The data set is classed as cell-based. The following applies: Lyp1 with src family kinases.
The subject of the next data set is Zap-70. Description: Co-transfection of Lyp1 and kinase cDNA, kinase immunoprecipitation, anti-phosphotyrosine Western blot. The data set is classed as cell-based. On the procedure:
as §1
(§3) cDNA for the phosphatase Lyp1 and the indicated kinase, in the eucaryotic expression vector pcDNA3, were transiently transfected into either the COS-7 monkey epithelial cell line (A) or the 293T human epithelial cell line as indicated. 48 hours after transfection, cells were harvested, lysates made in 1 & NP-40 lysis buffer and immunoprecipitations performed with antibodies to the transfected kinase. Immunoprecipitates were washed, boiled in SDS sample buffer and electrophoresed on SDS-PAGE. After electro-transfer to nitrocellulose membrane, Western blotting was performed with anti-phosphotyrosine antibodies and chemiluminescent detection reagents. […] Lyp1 could also down-regulate Zap-70 after its activation by Fyn in 293-T cells (B, lanes 3 and 4). The closely related Zap family kinase Syk was also unaffected by Lyp1 (C).

Another data set concerns Fyn. Described as above. The following applies: COS-7 and 293-T cells. Format: cell-based. On the procedure:
as §1, §3

Entries after “also recorded” stand apart in the source; their conditions may differ.

B1: Lyp-N: catalytically inactive form of Lyp1 where Cysteine 227 is replaced by Serine (protein, UniProt Q9Y2R2 1-807, looked up, variant C227S)
Tyrosine-protein phosphatase …: MDQREILQKFLDEAQSKKITKEEFANEFLKLKRQSTKYKADKTYPTTVAEKPKNIKKNRYKDILPYDYSRVELSLITSDEDSSYINANFIKGVYGPKAYIATQGPLSTTLLDFWRMIWEYSVLIIVMACMEYEMGKKKCERYWAEPGEMQLEFGPFSVSCEAEKRKSDYIIRTLKVKFNSETRTIYQFHYKNWPDHDVPSSIDPILELIWDVRCYQEDDSVPICIHSSAGCGRTGVICAIDYTWMLLKDGIIPENFSVFSLIREMRTQRPSLVQTQEQYELVYNAVLELFKRQMDVIRDKHSGTESQAKHCIPEKNHTLQADSYSPNLPKSTTKAAKMMNQQRTKMEIKESSSFDFRTSEISAKEELVLHPAKSSTSFDFLELNYSFDKNADTTMKWQTKAFPIVGEPLQKHQSLDLGSLLFEGCSNSKPVNAAGRYFNSKVPITRTKSTPFELIQQRETKEVDSKENFSYLESQPHDSCFVEMQAQKVMHVSSAELNYSLPYDSKHQIRNASNVKHHDSSALGVYSYIPLVENPYFSSWPPSGTSSKMSLDLPEKQDGTVFPSSLLPTSSTSLFSYYNSHDSLSLNSPTNISSLLNQESAVLATAPRIDDEIPPPLPVRTPESFIVVEEAGEFSPNVPKSLSSAVKVKIGTSLEWGGTSEPKKFDDSVILRPSKSVKLRSPKSELHQDRSSPPPPLPERTLESFFLADEDCMQAQSIETYSTSYPDTMENSTSSKQTLKTPGKSFTRSKSLKILRNMKKSICNSCPPNKPAESVQSNNSSSFLNFGFANRFSKPKGPRNPPPTWNI
Turning to B1, in the data set on Syk, the Syk tyrosine phosphorylation entry is “No effect”.

B2: Lyp1: human intracellular 105 kDa lymphoid protein tyrosine phosphatase, 808 amino acids, Sequence ID NO:2 (Table 2) (protein, listed as Homo sapiens)
chain: MDQREILQKFLDEAQSKKITKEEFANEFLKLKRQSTKYKADKTYPTTVAENAKNIKKNRYKDILPYDYSRVELSLITSDEDSSYINANFIKGVYGPKAYIATQGPLSTTLLDFWRMIWEYSVLIIVMACMEYEMGKKKCERYWAEPGEMQLEFGPFSVSCEAEKRKSDYIIRTLKVKFNSETRTIYQFHYKNWPDHDVPSSIDPILELIWDVRCYQEDDSVPICIHCSAGCGRTGVICAIVDYTWMLLKDGIIPENFSVFSLIREMRTQRPSLVQTQEQYELVYNAVLELFKRQMDVIRDKHSGTESQAKHCIPEKNHTLQADSYSPNLPKSTTKAAKMMNQQRTKMEIKESSSFDFRTSEISAKEELVLHPAKSSTSFDFLELNYSFDKNADTTMKWQTKAFPIVGEPLQKHQSLDLGSLLFEGCSNSKPVNAAGRYFNSKVPITRTKSTPFELIQQRETKEVDSKENFSYLESQPHDSCFVEMQAQKVMHVSSAELNYSLPYDSKHQIRNASNVKHHDSSALGVYSYIPLVENPYFSSWPPSGTSSKMSLDLPEKQDGTVFPSSLLPTSSTSLFSYYNSHSSLSLNSPTNISSLLNQESAVLATAPRIDDEIPPPLPVRTPESFIVVEEAGEFSPNVPKSLSSAVKVKIGTSLEWGGTSEPKKFDDSVILRPSKSVKLRSPKSELHQDRSSPPPPLPERTLESFFLADEDCMQAQSIETYSTSYPDTMENSTSSKQTLKTPGKSFTRSKSLKILRNMKKSICNSCPPNKPAESVQSNNSSSFLNFGFANRFSKPKGPRNPPPTWNI
B2: the “basal level of Cbl tyrosine phosphorylation” value in the data set with Cbl was “reduce significantly”. For the same molecule, the “33P release from the substrate Raytide” value with Lyp1 was “seven fold increase”. In the data set on Lyn kinase, the Lyn kinase activity result is “strongly down-regulates”. In addition, the Jak3 tyrosine phosphorylation entry in the data set with Jak3 was “clearly reduced; also recorded: complete dephosphorylation”. Further, the Syk tyrosine phosphorylation entry in the data set with Syk is listed as “unaffected; also recorded: little effect; also recorded: no Syk dephosphorylation”. Also, in the data set on Ick, the Ick dephosphorylation entry is on record as “no dephosphorylation”. Besides, the “Zap-70 phosphorylation after its activation by Fyn” value with Zap-70 (293-T cells) was “down-regulate”. For the same molecule, in the data set on Zap-70 (COS-7 and 293-T cells), the Zap-70 tyrosine phosphorylation result is given as “reduction; also recorded: complete dephosphorylation”. In addition, the Fyn tyrosine phosphorylation result in the data set on Fyn is listed as “unaffected; also recorded: no dephosphorylation”.

The record behind these values is patent US20040006777A1, “Human lymphoid protein tyrosine phosphatases” (HSC Research and Development Limited Partnership, priority 1998, published 2004).
